The source of these data is PMC2895232.

Data set [1] concerns the target ParBΔ121–183 of Pseudomonas aeruginosa (Pseudomonas aeruginosa). Kind of data set: cross-linking; glutaraldehyde cross-linking in vitro of purified His6-tagged ParB proteins to determine the oligomeric state; WT ParB as the control.
For data set [2], the target named is wild-type ParB of Pseudomonas aeruginosa (Pseudomonas aeruginosa). Described as above.
Data set [3] deals with ParB1-229 (Pseudomonas aeruginosa PAO1161). Kind of data set: EMSA. The following applies: not given in the material. On the technique in general: A gel shift assay detects complexes by their altered migration in electrophoresis.

Substance “ParBΔ121–183 of Pseudomonas aeruginosa (natural protein)” yielded a stoichiometry N in data set [1] of 2.

Substance “wild-type ParB of Pseudomonas aeruginosa (natural protein)” showed a stoichiometry N in data set [2] of 2.

With parS, the binding signal (fold of WT affinity (>5-fold decreased)) in data set [3] is < 0.2.

For orientation: stoichiometry N means the number of molecules, sites or subunits per partner or assembly.
